Changes are numbered by the printed parent chain. In names and notes the source's numbering stands.
B1: RdINV (Rhodotorula dairenensis; A213W/Q216L) (protein)
chain: APAASSLAGPVTTGVFSAVSAIPSFATNLSGQVASATSTVLSGSTASGSSATAAPSASASGASSMQSMASSLSGSAFSPSSMMPIASGNMTMPNMTSSASASSAASTATGVAGGAGSNSSSSCAPTSLPASATELPTTVPTGTVITGDYTGSYRPQVHYSPPKGFMNDPNGCHRDRNGTYHLYYQYNPLEYVWGNLHWGHATSDDLYHWTNQPIAIFPPNSTSQVFSGSAVLDPNNTSGFFPNTTDGVVAVYTLNTPTLQVQEVAYSTDGGYNFTPYENNPVLSVGSNQFRDPKVFWYEDHWVMAVAAANDFTIEIYTSPNLTSWTFASNFTHHGLLGLAYECPNLVQVPFQDDPSKSAWLMYISINPGAPLGGSVGQYFPGDFNGTHFVAYDSAARIADFAKDNYASQWFADTENGESISIAWASNWQYTQQVPTSAQAFRSAMSLPRRNYLTNITRLGWDLVSLPYDLSPVVGPSLLSSSEANSTADVDFTNVTSNAVWFSLNVTLPDAAIQNASLISADASINITFLPSTKCSSSSGSGSDSPAATLTYFYAGLTNGALALTRPAASSSWGAENPFFTDKFSYTLVDPLTSLVGVFDRSMLEVFVNEGAHSATMLVFPDSPVGSMKVATGGLPEGTQVNLQVNGLESTWQSS
notes: full-length RdINV, 675 residues, S. cerevisiae MFalpha secretion signal in pIB4, secreted by Komagataella phaffii; highly N- and O-glycosylated, ~170 kDa; homodimer
B2: RdINV (Rhodotorula dairenensis; A213W) (protein)
chain: B1 chain with L196Q
notes: as for B1
B3: RdINV (Rhodotorula dairenensis; Q216L) (protein)
chain: B1 chain with W193A
notes: as for B1
B4: RdINV (Rhodotorula dairenensis; N387T) (protein)
chain: B1 chain with W193A, L196Q, N367T
notes: as for B1
B5: RdINV (Rhodotorula dairenensis; A360Q/N387T) (protein)
chain: B1 chain with W193A, L196Q, A340Q, N367T
notes: as for B1
B6: RdINV (Rhodotorula dairenensis; A360Q) (protein)
chain: B1 chain with W193A, L196Q, A340Q
notes: as for B1
B7: RdINV (Rhodotorula dairenensis; Q216T) (protein)
chain: B1 chain with W193A, L196T
notes: as for B1
B8: RdINV (Rhodotorula dairenensis) (protein)
chain: B1 chain with W193A, L196Q
notes: as for B1
B9: RdINVΔ21–139 (Rhodotorula dairenensis) (protein)
chain: SSSCAPTSLPASATELPTTVPTGTVITGDYTGSYRPQVHYSPPKGFMNDPNGCHRDRNGTYHLYYQYNPLEYVAGNQHWGHATSDDLYHWTNQPIAIFPPNSTSQVFSGSAVLDPNNTSGFFPNTTDGVVAVYTLNTPTLQVQEVAYSTDGGYNFTPYENNPVLSVGSNQFRDPKVFWYEDHWVMAVAAANDFTIEIYTSPNLTSWTFASNFTHHGLLGLAYECPNLVQVPFQDDPSKSAWLMYISINPGAPLGGSVGQYFPGDFNGTHFVAYDSAARIADFAKDNYASQWFADTENGESISIAWASNWQYTQQVPTSAQAFRSAMSLPRRNYLTNITRLGWDLVSLPYDLSPVVGPSLLSSSEANSTADVDFTNVTSNAVWFSLNVTLPDAAIQNASLISADASINITFLPSTKCSSSSGSGSDSPAATLTYFYAGLTNGALALTRPAASSSWGAENPFFTDKFSYTLVDPLTSLVGVFDRSMLEVFVNEGAHSATMLVFPDSPVGSMKVATGGLPEGTQVNLQVNGLESTWQSS
notes: truncated: residues 21-139 deleted after the signal peptide (residues 140-675 remain); secreted by Komagataella phaffii, glycosylated, ~100 kDa; homodimer; deglycosylated for crystals

substrate: OC[C@H]1O[C@@](CO)(O[C@H]2O[C@H](CO)[C@@H](O)[C@H](O)[C@H]2O)[C@@H](O)[C@@H]1O; test: DNS reducing sugar assay, Michaelis-Menten fit; format: biochemical, Rhodotorula dairenensis; conditions: 50 mM sodium phosphate pH 5.5, 60 °C, sucrose 1-200 mM
Excerpt: DNS reducing sugar assay, Michaelis-Menten fit on RdINV

| Protein | Km | kcat | kcat/Km |
| --- | --- | --- | --- |
| B1 | 88 ± 9 mM | 10500 ± 329 s⁻¹ | 120000 ± 4000 M⁻¹ s⁻¹ |
| B2 | 47 ± 3 mM | 2720 ± 45 s⁻¹ | 58000 ± 3000 M⁻¹ s⁻¹ |
| B3 | 24 ± 1 mM | 2324 ± 13 s⁻¹ | 98000 ± 3000 M⁻¹ s⁻¹ |
| B4 | 17 ± 0.8 mM | 583 ± 5 s⁻¹ | 35000 ± 1000 M⁻¹ s⁻¹ |
| B5 | 14 ± 0.6 mM | 486 ± 4 s⁻¹ | 34000 ± 1000 M⁻¹ s⁻¹ |
| B6 | 15 ± 0.2 mM | 3814 ± 16 s⁻¹ | 251000 ± 21000 M⁻¹ s⁻¹ |
| B7 | 13 ± 1 mM | 11500 ± 182 s⁻¹ | 864000 ± 39000 M⁻¹ s⁻¹ |
| B8 | 5 ± 0.1 mM | 4751 ± 25 s⁻¹ | 1.011e+06 ± 10000 M⁻¹ s⁻¹ |

substrate: OC[C@H]1O[C@@](CO)(O[C@H]2O[C@H](CO)[C@@H](O)[C@H](O)[C@H]2O)[C@@H](O)[C@@H]1O; test: DNS reducing sugar assay, Michaelis-Menten fit; format: biochemical, Rhodotorula dairenensis; conditions: 50 mM sodium phosphate pH 5.5, 60 °C, sucrose 1-200 mM; remark: another data set of the same source
Excerpt: DNS reducing sugar assay, Michaelis-Menten fit on RdINVΔ21–139

| Protein | Km | kcat | kcat/Km |
| --- | --- | --- | --- |
| B9 | 9 ± 1 mM | 16400 ± 216 s⁻¹ | 1.781e+06 ± 16000 M⁻¹ s⁻¹ |

Reference: PMC9741242, “Insights into the Structure of the Highly Glycosylated Ffase from Rhodotorula dairenensis Enhance Its Biotechnological Potential” (International Journal of Molecular Sciences, 2022)
